According to US20040071707A1, “Modulation of cell growth” (priority 2000, published 2004):

Experiments:
HUVEC = test: In vitro endothelial cell proliferation assay; format: cell-based, Human; settings: for bFGF induced EC growth: 10 ng/mL bFGF, non-toxic doses (<40 μg/mL) for K2P fragments; for effect on basal HUVEC/EC growth (substance alone): M199 with 2% FBS, 4 days, colorimetric
Method: Human umbilical vein endothelial cells (HUVEC) were purchased from Clonetics or isolated from umbilical vein cords by mild collagenase treatment as described and cultured in M199 with Earle's salts (Sigma) with 20% heat inactivated fetal bovine serum (Sigma), 100 IU/mL penicillin 100 μg/mL streptomycin (Gibco), 250 ng/mL fungizone (Gibco), 2 mM glutamine (Gibco), 5 IU/mL heparin (Sigma) and 50 μg/mL ECGS (Technoclone, Vienna, Austria). Human vascular smooth muscle cells (HVSMC) were isolated as described.
3×10^3 cells were plated in 96-well plates and allowed to attach overnight. Growth was arrested by incubation with 100 μL reduced growth medium (M199 with 2% FBS) for 24 h. Thereafter anti-tPA antibodies and other reagents were added to wells. K2P (Reteplase), anti-kringle 2 (7VPA) and anti-finger/EGF antibodies (3VPA and 6VPA) were a gift from Technoclone, Vienna, Austria. Anti-kringle 1 (PAM-2), anti-kringle 2 (ESP1) and anti-protease (374B and ESP2) antibodies were purchased from American Diagnostica, Alpha Labs, UK. D-mannitol and LY294002 were obtained from Sigma. VEGF121 and bFGF were purchased from R&D Systems Inc., UK. Recombinant single chain tPA (rsctPA) was obtained from Boehringher Ingelheim. The mutant alatPA was kindly provided by Prof. Roger Lijnen (Center for Molecular and Vascular Biology, Leuven, Belgium). Aprotinin was purchased from Boehringer Mannheim. The tPA peptides (tPA I and tPA II) corresponding to residues 7-17 and 15-26 respectively were synthesized by the Clinical Sciences Centre peptide synthesis facility at Hammersmith and the ICRF peptide unit. Rp-cAMPS and Lavendustin A were obtained from Calbiochem, UK. After 4 days of incubation cell number was quantified colorimetrically by the addition of 20 μL CellTiter 96 AQueous One Solution Cell Proliferation Assay (Promega) at 492 nm and 620 nm reference filter. Background absorbance was determined with substrate alone and subtracted from all wells.
HUVEC were plated at 1×10^5 cells in 12 well plates overnight. Medium was replaced with reduced growth medium overnight followed by addition of anti-K2 antibody. Control wells contained M199 and 2% FBS alone. After 3 days incubation cells were counted in a hemocytometer.

HVSMC = HVSMC growth (proliferation assay); format: cell-based, Human
Method: (A and B). HUVEC or HVSMC cultures were incubated with increasing concentrations of PMSF inactivated K2P (K2P-PMSF) or control treated K2P either in the absence (A) or presence (B) of 10 ng/mL bFGF at the concentrations indicated. Angiostatin was included as a positive control for inhibition of bFGF mediated cell growth. HUVEC results represent mean of at least three independent experiments with three different batches of HUVEC. Experiments with HVSMC were repeated twice. (C and D). HUVEC were treated with 100 μg/mL K2P-PMSF and increasing concentrations of either anti-kringle 2 antibody, 7VPA (C) or rsctPA (D) for four days as indicated. Control wells contained M199 and 2% FBS alone. Data represent mean±SE of duplicate experiments with two different batches of HUVEC. […]
3×10^3 cells were plated in 96-well plates and allowed to attach overnight. […] After 4 days of incubation cell number was quantified colorimetrically by the addition of 20 μL CellTiter 96 AQueous One Solution Cell Proliferation Assay (Promega) at 492 nm and 620 nm reference filter. Background absorbance was determined with substrate alone and subtracted from all wells.

| Molecule | bFGF induced EC growth (HUVEC) | concentration giving 50% inhibition (HUVEC; HUVEC growth, bFGF 10 ng/mL (FIG. 4B)) | effect on basal HUVEC/EC growth (substance alone) (HUVEC) | HVSMC growth in the presence of bFGF (HVSMC; 10 ng/mL bFGF) | basal HVSMC growth, % of control (HVSMC; highest concentration used (100 μg/mL)) | VEGF stimulated HUVEC growth (HUVEC; 10 ng/mL VEGF) |
| --- | --- | --- | --- | --- | --- | --- |
| K2P-PMSF: proteolytically inactivated K2P (protease domain inactivated with PMSF) (protein) SYQVICRDEKTQMIYQQHQSWLRPVLRSNRVEYCWCNSGRAQCHSVPVKSCSEPRCFNGGTCQQALYFSDFVCQCPEGFAGKCCEIDTRATCYEDQGISYRGTWSTAESGAECTNWNSSALAQKPYSGRRPDAIRLGLGNHNYCRNPDRDSKPWCYVFKAGKYSSEFCSTPACSEGNSDCYFGNGSAYRGTHSLTESGASCLPWNSMILIGKVYTAQNPSAQALGLGKHNYCRNPDGDAKPWCHVLKNRRLTWEYCDVPSCSTCGLRQYSQPQFRIKGGLFADIASHPWQAAIFAKHRRSPGERFLCGGILISSCWILSAAHCFQERFPPHHLTVILGRTYRVVPGEEEQKFEVEKYIVHKEFDDDTYDNDIALLQLKSDSSRCAQESSVVRTVCLPPADLQLPDWTECELSGYGKHEALSPFYSERLKEAHVRLYPSSRCTSQHLLNRTVTDNMLCAGDTRSGGPQANLHDACQGDSGGPLVCLNDGRMTLVGIISWGLGCGQKDVPGVYTKVTNYLDWIRDNMRP | completely inhibited | 30 µg/mL | inhibited | No inhibition | 65 % of control | – |
| rsctPA: Recombinant single chain tPA (protein) SYQVICRDEKTQMIYQQHQSWLRPVLRSNRVEYCWCNSGRAQCHSVPVKSCSEPRCFNGGTCQQALYFSDFVCQCPEGFAGKCCEIDTRATCYEDQGISYRGTWSTAESGAECTNWNSSALAQKPYSGRRPDAIRLGLGNHNYCRNPDRDSKPWCYVFKAGKYSSEFCSTPACSEGNSDCYFGNGSAYRGTHSLTESGASCLPWNSMILIGKVYTAQNPSAQALGLGKHNYCRNPDGDAKPWCHVLKNRRLTWEYCDVPSCSTCGLRQYSQPQFRIKGGLFADIASHPWQAAIFAKHRRSPGERFLCGGILISSCWILSAAHCFQERFPPHHLTVILGRTYRVVPGEEEQKFEVEKYIVHKEFDDDTYDNDIALLQLKSDSSRCAQESSVVRTVCLPPADLQLPDWTECELSGYGKHEALSPFYSERLKEAHVRLYPSSRCTSQHLLNRTVTDNMLCAGDTRSGGPQANLHDACQGDSGGPLVCLNDGRMTLVGIISWGLGCGQKDVPGVYTKVTNYLDWIRDNMRP | – | – | neither rsctPA nor alatPA could stimulate EC growth | – | – | – |
| kringle 2: kringle 2 domain of tPA purified from K2P by limited elastase digestion and lysine-Sepharose (protein) CYFGNGSAYRGTHSLTESGASCLPWNSMILIGKVYTAQNPSAQALGLGKHNYCRNPDGDAKPWCHVLKNRRLTWEYCDVPSC | significantly inhibited | – | significantly inhibited | – | – | significantly inhibited |
